Article PMC12354661

Assays:
[1] = biological target: T1, C-type lectin-like molecule-1 (CLL-1), immobilized on magnetic beads or SPR chip (UniProt Q5QGZ9); assay: flow cytometry (bead binding); conditions: Flow cytometry: 100 nM FAM-aptamer, 10 uL MB-CLL-1 in 200 uL DPBS, room temperature, 30 min, 150 rpm, 3 DPBS washes, SPR buffer and temperature not stated
T1 sequence: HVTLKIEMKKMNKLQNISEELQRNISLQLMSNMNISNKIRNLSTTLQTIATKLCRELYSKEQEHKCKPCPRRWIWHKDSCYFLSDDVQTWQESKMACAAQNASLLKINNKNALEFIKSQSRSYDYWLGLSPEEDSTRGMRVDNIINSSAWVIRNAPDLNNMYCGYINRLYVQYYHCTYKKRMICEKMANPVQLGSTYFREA

[2] = biological target: T1, C-type lectin-like molecule-1 (CLL-1), immobilized on magnetic beads or SPR chip; assay: SPR; conditions: aptamer 0.000244-0.0625 uM, Flow cytometry: 100 nM FAM-aptamer, 10 uL MB-CLL-1 in 200 uL DPBS, room temperature, 30 min, 150 rpm, 3 DPBS washes, SPR buffer and temperature not stated

“ATTACCAGGGACCGAAGGCAAAACTATGATCGGTGG [Aptamer-2 (Apt-2)]” was tested, and the binding signal (% FITC-positive beads) ([1]; 100 nM aptamer) was 94.3, the binding signal (% FITC-positive beads) ([1]; 100 nM aptamer, specificity experiment) was 100 and the Kd [2] was 15.5 nM.

With “AACACTGGGGGCTGCTCGGGATTGTCGGACGTGGTG [Aptamer-4 (Apt-4)]” the binding signal (% FITC-positive beads) ([1]; 100 nM aptamer) was 2.84.

“TCGCGAAGGGTGGGGACTGCTCGGGATTGCGGATGC [Aptamer-1 (Apt-1)]” gave a binding signal (% FITC-positive beads) ([1]; 100 nM aptamer, text gives 3.28) of 3.26.

In the case of “CACGAACCGGGGAGGGCGGGCGGGTTGGTGTCGTGC [Aptamer-3 (Apt-3)]”, the binding signal (% FITC-positive beads) [1] is reported as 1.23.
